± gives the uncertainty stated by the source.
Assay: self-splicing fitness, log relative to wild type (ln ratio); higher = more splicing; Tetrahymena group I intron in knt gene, E. coli kanamycin selection, DiMSum; sequences stand for … in CUCUCU…GGAGGGAAAAGUUAUCAGGCAUGCACCUGGUAGCUAGUCUUUAAACCAAUAGAUUGCAUCGGUUUAAAAGGCAAGACCGUCAAAUUGCGGGAAAGGGGUCAACAGCCGUUCAGUACCAAGUCUCAGGGGAAACUUUGAGAUGGCCUUGCAAAGGGUAUGGUAAUAAGCUGACGGACAUGGUCCUAACCACGCAGCCAAGUCCUAAGUCAACAGAUCUUCUGUUGAUAUGGAUGCAGUUCACAGACUAAAUGUCGGUCGGGGAAGAUGUAUUCUUCUCAUAAGAUAUAGUCGGACCUCUCCUUAAUGGGAGCUAGCGGAUGAAGUGAUGCAACACUGGAGCCGCUGGGAACUAAUUUGUAUGCGAAAGUAUAUUGAUUAGUUUUGGAGUACUCGUGGUCG
Procedure, shortened: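 Six replicate transformations of E. coli BL21(DE3) with a pET-22b(+) library were grown overnight at 37°C or 30°C. The library randomised all eight P1ex-region intron nucleotides, the intron lying in the knt kanamycin-resistance gene, and plates were LB agar with or without 25 μg/mL kanamycin plus 100 μg/mL carbenicillin, 50 μM IPTG and 0.2% rhamnose. Pooled colonies were amplicon-sequenced on an Illumina HiSeq 2500, and fitness is the DiMSum error-weighted combination of wild-type-normalised replicate fold changes, kanamycin versus none.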

In the case of UGAUAGCAAUAUUACGGGGG, the “self-splicing fitness (ln)” value (30 °C) is reported as -1.83 ± 0.18 and the “self-splicing fitness (ln)” value (37 °C) is reported as -2.45 ± 0.28.
In the case of UUGUAGCAAUAUUACGGUUU, the “self-splicing fitness (ln)” value (30 °C) is reported as -3.53 ± 0.24 and the “self-splicing fitness (ln)” value (37 °C) is reported as -1.79 ± 0.17.
With AGCAAGCAAUAUUACGCUAU the “self-splicing fitness (ln)” value (30 °C) was -2.4 ± 0.1 and the “self-splicing fitness (ln)” value (37 °C) was -2.25 ± 0.15.
For CGGCAGCAAUAUUACGGUCC, the “self-splicing fitness (ln)” value (30 °C) was -1.34 ± 0.082 and the “self-splicing fitness (ln)” value (37 °C) was 0.00991 ± 0.09.
For CUUUAGCAAUAUUACGUGUG, the “self-splicing fitness (ln)” value (30 °C) was -1.6 ± 0.094 and the “self-splicing fitness (ln)” value (37 °C) was -0.61 ± 0.08.
With CCCGAGCAAUAUUACGACAA the “self-splicing fitness (ln)” value (30 °C) was -2.78 ± 0.3 and the “self-splicing fitness (ln)” value (37 °C) was -2.85 ± 0.41.
In the case of GAGAAGCAAUAUUACGAAGC, the “self-splicing fitness (ln)” value (30 °C) is reported as -3.21 ± 0.28 and the “self-splicing fitness (ln)” value (37 °C) is reported as -1.65 ± 0.29.
For CUGGAGCAAUAUUACGAUUA, the “self-splicing fitness (ln)” value (30 °C) was -2.56 ± 0.27 and the “self-splicing fitness (ln)” value (37 °C) was -1.07 ± 0.26.
With GUCCAGCAAUAUUACGCUAG the “self-splicing fitness (ln)” value (30 °C) was -1.18 ± 0.076 and the “self-splicing fitness (ln)” value (37 °C) was -0.908 ± 0.1.
With UAAGAGCAAUAUUACGGGGU the “self-splicing fitness (ln)” value (30 °C) was -2.67 ± 0.19 and the “self-splicing fitness (ln)” value (37 °C) was -1.44 ± 0.49.
In the case of UUCCAGCAAUAUUACGUAGG, the “self-splicing fitness (ln)” value (30 °C) is reported as -4.29 ± 0.42 and the “self-splicing fitness (ln)” value (37 °C) is reported as -2.44 ± 0.23.
In the case of UAAGAGCAAUAUUACGGCAA, the “self-splicing fitness (ln)” value (30 °C) is reported as -2.23 ± 0.18 and the “self-splicing fitness (ln)” value (37 °C) is reported as -2.03 ± 0.14.
For UAAUAGCAAUAUUACGACGU, the “self-splicing fitness (ln)” value (30 °C) was -3.74 ± 0.33 and the “self-splicing fitness (ln)” value (37 °C) was -1.76 ± 0.18.
With UUAUAGCAAUAUUACGGGCA the “self-splicing fitness (ln)” value (30 °C) was -2.37 ± 0.18 and the “self-splicing fitness (ln)” value (37 °C) was -1.32 ± 0.19.
For GACGAGCAAUAUUACGUCGA, the “self-splicing fitness (ln)” value (30 °C) was -1.82 ± 0.23.
With CACGAGCAAUAUUACGGCAU the “self-splicing fitness (ln)” value (30 °C) was -3.23 ± 0.2 and the “self-splicing fitness (ln)” value (37 °C) was -3.52 ± 0.33.
With ACGCAGCAAUAUUACGGAGC the “self-splicing fitness (ln)” value (37 °C) was -2.47 ± 0.26.
With CGUUAGCAAUAUUACGUGCU the “self-splicing fitness (ln)” value (30 °C) was -2.71 ± 0.2 and the “self-splicing fitness (ln)” value (37 °C) was -1.64 ± 0.21.
With AUCCAGCAAUAUUACGCUUG the “self-splicing fitness (ln)” value (30 °C) was -3.27 ± 0.2 and the “self-splicing fitness (ln)” value (37 °C) was -2.7 ± 0.25.
With UGAUAGCAAUAUUACGUUAU the “self-splicing fitness (ln)” value (30 °C) was -3.61 ± 0.18 and the “self-splicing fitness (ln)” value (37 °C) was -2.52 ± 0.17.
In the case of CGACAGCAAUAUUACGAAGU, the “self-splicing fitness (ln)” value (30 °C) is reported as -4.32 ± 0.37 and the “self-splicing fitness (ln)” value (37 °C) is reported as -3.18 ± 0.43.
For ACAUAGCAAUAUUACGACAG, the “self-splicing fitness (ln)” value (30 °C) was -1.46 ± 0.099 and the “self-splicing fitness (ln)” value (37 °C) was -0.508 ± 0.11.
With CUACAGCAAUAUUACGUAGC the “self-splicing fitness (ln)” value (30 °C) was -3.76 ± 0.26 and the “self-splicing fitness (ln)” value (37 °C) was -2.54 ± 0.33.
In the case of UAGCAGCAAUAUUACGGCUU, the “self-splicing fitness (ln)” value (30 °C) is reported as -1.1 ± 0.11 and the “self-splicing fitness (ln)” value (37 °C) is reported as 0.255 ± 0.15.
For UACAAGCAAUAUUACGAACU, the “self-splicing fitness (ln)” value (30 °C) was -1.48 ± 0.089 and the “self-splicing fitness (ln)” value (37 °C) was -0.628 ± 0.1.
With UAAUAGCAAUAUUACGAAGC the “self-splicing fitness (ln)” value (37 °C) was -1.83 ± 0.33.
With UACGAGCAAUAUUACGAGGC the “self-splicing fitness (ln)” value (30 °C) was -4.33 ± 0.39 and the “self-splicing fitness (ln)” value (37 °C) was -2.51 ± 0.25.
In the case of AGCUAGCAAUAUUACGGCGG, the “self-splicing fitness (ln)” value (30 °C) is reported as -1.13 ± 0.12 and the “self-splicing fitness (ln)” value (37 °C) is reported as -0.547 ± 0.14.
In the case of CCACAGCAAUAUUACGGAAC, the “self-splicing fitness (ln)” value (30 °C) is reported as -3.75 ± 0.24 and the “self-splicing fitness (ln)” value (37 °C) is reported as -2.47 ± 0.23.
For GAAAAGCAAUAUUACGCAUG, the “self-splicing fitness (ln)” value (30 °C) was -1.12 ± 0.079 and the “self-splicing fitness (ln)” value (37 °C) was -0.337 ± 0.1.
With AAACAGCAAUAUUACGCUCC the “self-splicing fitness (ln)” value (30 °C) was -1.21 ± 0.14 and the “self-splicing fitness (ln)” value (37 °C) was -0.165 ± 0.13.
In the case of UCCCAGCAAUAUUACGAAUA, the “self-splicing fitness (ln)” value (30 °C) is reported as -2.11 ± 0.1 and the “self-splicing fitness (ln)” value (37 °C) is reported as -1.42 ± 0.11.
In the case of GGUAAGCAAUAUUACGUUGA, the “self-splicing fitness (ln)” value (30 °C) is reported as -1.76 ± 0.21 and the “self-splicing fitness (ln)” value (37 °C) is reported as -1.03 ± 0.15.
In the case of ACGCAGCAAUAUUACGCCCC, the “self-splicing fitness (ln)” value (30 °C) is reported as -0.51 ± 0.21 and the “self-splicing fitness (ln)” value (37 °C) is reported as -0.189 ± 0.28.
In the case of CCUCAGCAAUAUUACGGGCC, the “self-splicing fitness (ln)” value (30 °C) is reported as -4.31 ± 0.3 and the “self-splicing fitness (ln)” value (37 °C) is reported as -2.77 ± 0.36.
In the case of AAAAAGCAAUAUUACGCAGC, the “self-splicing fitness (ln)” value (30 °C) is reported as -1.99 ± 0.13 and the “self-splicing fitness (ln)” value (37 °C) is reported as -2.19 ± 0.19.
With AUGCAGCAAUAUUACGACGU the “self-splicing fitness (ln)” value (30 °C) was -0.0321 ± 0.072 and the “self-splicing fitness (ln)” value (37 °C) was 0.706 ± 0.083.
For GAUUAGCAAUAUUACGUCGC, the “self-splicing fitness (ln)” value (30 °C) was -1.91 ± 0.15 and the “self-splicing fitness (ln)” value (37 °C) was -0.838 ± 0.16.
With AUAUAGCAAUAUUACGGCGA the “self-splicing fitness (ln)” value (30 °C) was -0.84 ± 0.12 and the “self-splicing fitness (ln)” value (37 °C) was -0.69 ± 0.13.
In the case of UACGAGCAAUAUUACGAUUU, the “self-splicing fitness (ln)” value (30 °C) is reported as -2.88 ± 0.17 and the “self-splicing fitness (ln)” value (37 °C) is reported as -1.3 ± 0.16.
For CCACAGCAAUAUUACGCGCU, the “self-splicing fitness (ln)” value (30 °C) was -4.48 ± 0.23 and the “self-splicing fitness (ln)” value (37 °C) was -2.26 ± 0.15.
With UCAUAGCAAUAUUACGUCUU the “self-splicing fitness (ln)” value (30 °C) was -3.28 ± 0.24 and the “self-splicing fitness (ln)” value (37 °C) was -3.53 ± 0.32.
In the case of CACAAGCAAUAUUACGCAUG, the “self-splicing fitness (ln)” value (30 °C) is reported as -3.79 ± 0.18 and the “self-splicing fitness (ln)” value (37 °C) is reported as -2.52 ± 0.13.

— the supplement of paper PMC7877785
